We go through eight molecules from US20250179196A1 (Janssen / Centocor, published 2025).

What is called EC50 is the concentration that produces a half-maximal response. As a reminder, the Kd is the free concentration of one partner at which half of the binding sites on the other are occupied at equilibrium, for simple one-to-one binding. Low readings indicate tighter binding, high ones weaker binding.

Experiment [1] addresses T1, human IL-23R expressed on the cell surface of stably transfected iLite and HEK cell lines (human, UniProt Q5VWK5 24-629).
T1 construct: whole, on cells; Same receptor on two transfected cell lines; the cell line is named under assay; also called human IL-23R iLite cells; human IL-23R HEK cells
T1 sequence (looked up): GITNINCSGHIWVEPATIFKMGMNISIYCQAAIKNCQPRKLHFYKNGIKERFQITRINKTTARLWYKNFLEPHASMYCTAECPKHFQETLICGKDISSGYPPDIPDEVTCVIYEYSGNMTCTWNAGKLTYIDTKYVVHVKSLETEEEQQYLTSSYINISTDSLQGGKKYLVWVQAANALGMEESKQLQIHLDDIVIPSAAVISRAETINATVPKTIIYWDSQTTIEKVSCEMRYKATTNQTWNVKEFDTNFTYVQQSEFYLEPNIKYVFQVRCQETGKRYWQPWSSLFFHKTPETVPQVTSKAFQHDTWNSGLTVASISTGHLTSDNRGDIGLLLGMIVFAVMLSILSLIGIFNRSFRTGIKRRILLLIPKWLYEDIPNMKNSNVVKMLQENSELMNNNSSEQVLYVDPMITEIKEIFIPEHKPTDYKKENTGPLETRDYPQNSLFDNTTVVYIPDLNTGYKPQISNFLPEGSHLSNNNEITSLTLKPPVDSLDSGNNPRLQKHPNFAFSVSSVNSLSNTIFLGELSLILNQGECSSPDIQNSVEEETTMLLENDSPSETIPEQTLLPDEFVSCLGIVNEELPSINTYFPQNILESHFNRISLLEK
Nature of the experiment: flow cytometry on human IL-23R iLite cells, Expt A (1-point). The protocol: Human IL-23R iLiTe cell single concentration mAb Binding. Anti-IL-23R mouse IgG₂ₐ mAbs derived from phage panning were tested for binding to human IL-23R expressing iLiTe cells, where a PE conjugated anti mouse secondary antibody detected mAbs bound to the receptor on the cells. […] The next day 100,000 cells were added to each well of a 96 well V bottom plate (Costar, Catalog #3357), centrifuged at 450× gravity for 2 minutes, and then supernatants were decanted. […] Antibodies diluted to 3 μg/mL in Stain Buffer (BSA) (BD Pharmagen, Catalog #554657) were added at 100 μL/well and incubated on ice for 50 minutes, then plates were centrifuged and supernatants were decanted. […] Cells were washed by adding 100 μL/well of Stain Buffer followed by centrifugation and decanting of the supernatants. Cells were resuspended in 100 μL/well of Stain Buffer and analyzed on the Becton Dickenson LSR II FACS instrument with HTS module. Data was analyzed using FlowJo software (Treestar) to obtain geometric mean fluorescence intensities.
(In general: In flow cytometry, cells or beads pass a laser one at a time.)

For experiment [2], the target named is T1, human IL-23R expressed on the cell …. Nature of the experiment: flow cytometry on human IL-23R iLite cells, Expt B (1-point). The protocol: Human IL-23R iLiTe cell single concentration mAb Binding. Anti-IL-23R mouse IgG₂ₐ mAbs derived from phage panning were tested for binding to human IL-23R expressing iLiTe cells, where a PE conjugated anti mouse secondary antibody detected mAbs bound to the receptor on the cells. […] The next day 100,000 cells were added to each well of a 96 well V bottom plate (Costar, Catalog #3357), centrifuged at 450× gravity for 2 minutes, and then supernatants were decanted. […] Cells were washed by adding 100 μL/well of Stain Buffer followed by centrifugation and decanting of the supernatants. Cells were resuspended in 100 μL/well of Stain Buffer and analyzed on the Becton Dickenson LSR II FACS instrument with HTS module. Data was analyzed using FlowJo software (Treestar) to obtain geometric mean fluorescence intensities.

The target is the same in experiment [3]. Nature of the experiment: flow cytometry on human IL-23R iLite cells, Expt C (12-point), Gate 2. The protocol:
(§1) Human IL-23R iLiTe cell concentration response mAb binding. […] The next day 100,000 cells were added to each well of a 96 well V bottom plate (Costar, Catalog #3357), centrifuged at 450× gravity for 2 minutes, and then supernatants were decanted. Antibodies were diluted in Stain Buffer (BSA) (BD Pharmagen, Catalog #554657) and added at 50 μL/well, and mixed. Plates were incubated on ice for 50 minutes, then plates were centrifuged and supernatants were decanted. […] Cells were washed by adding 200 μL/well of Stain Buffer followed by centrifugation and decanting of the supernatants. Cells were resuspended in 100 μL/well of Stain Buffer, transferred in quadruplicate to a 384 well plate (Greiner, Catalog #781281) and analyzed on the Becton Dickenson LSR II FACS instrument with HTS module. Data was analyzed using FlowJo software (Treestar) to obtain geometric mean fluorescence intensities, and geometric mean fluorescence intensities were plotted over log mAb concentrations fitted with a sigmoidal dose response curve with variable slope using GraphPad Prism.

For experiment [4] the target is unchanged. Kind of experiment: flow cytometry on human IL-23R iLite cells, Expt C (12-point), Gate 1 + 2. The protocol:
as §1

Experiment [5] shares this target. Nature of the experiment: flow cytometry on human IL-23R HEK cells, Expt E (11-point, 384well). In a few lines: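 Antibody bound to HEK-IL-23R cells 30 min at 37 °C over 11 concentrations; after washes, Sytox Green added and cells run on iQue. Geometric MFI of 647 detection antibody on single viable cells fitted by variable-slope dose–response.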
Experiment [6] shares this target. Nature of the experiment: flow cytometry on human IL-23R HEK cells, Expt D (8-point, 96well); legend: N-No cell binding observed. The protocol:
HEK-IL-23R cell concentration response mAb binding (8-point, 96-well assay). […] HEK-IL-23R and HEK-parental cells (12.5 μL of each, 120000 cells total) were plated in 2× replicate on 96-well V-bottom plates (Corning, Cat #3357) into 37° C. warmed Assay medium containing serially diluted IL-23R mAbs to a final volume of 150 μL. IL-23R mAbs were allowed to bind to cells for 30 minutes, at 37° C. […] Cells were next washed twice in ice-cold stain buffer, then resuspended in a final volume of 30 μL with Sytox Green viability dye (ThermoFisher, Cat #S7020). Plates were kept on ice until run for analysis on the iQue. All washes were performed by centrifugation (800 rcf, 3 minutes) followed by flick decantation to remove supernatants. Cell-binding to HEK-IL-23R cells was measured with FlowJo, by gating for single, viable cells and determining the geometric mean fluorescence intensity (MFI) for the 647 detection antibody. Geometric mean fluorescence intensities were plotted over log mAb concentrations fitted with a dose response curve with variable slope using GraphPad Prism.

Experiment [7] concerns the target T2, human IL-23R extracellular domain (ECD) protein (human, UniProt Q5VWK5 24-355).
T2 construct: Recombinant ECD; also called hu IL-23R ECD
T2 sequence: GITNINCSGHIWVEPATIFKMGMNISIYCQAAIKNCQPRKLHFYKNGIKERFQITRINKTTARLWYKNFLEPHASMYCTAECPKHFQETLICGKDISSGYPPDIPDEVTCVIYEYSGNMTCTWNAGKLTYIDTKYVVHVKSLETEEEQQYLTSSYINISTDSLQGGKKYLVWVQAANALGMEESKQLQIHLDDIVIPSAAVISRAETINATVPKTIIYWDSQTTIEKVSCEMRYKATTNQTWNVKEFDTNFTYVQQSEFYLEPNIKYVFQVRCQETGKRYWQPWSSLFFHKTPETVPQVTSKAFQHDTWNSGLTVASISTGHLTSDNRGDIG
Kind of experiment: column 'Affinity to hu IL-23R ECD' (summary of SPR data).

B1: I23RB1 (antibody, mouse IgG2a, kappa, V domains shown)
VH: QVQLVQSGAEVKKPGSSVKVSCKASGGTFKNYAISWVRQAPGQGLEWMGWIRPIFGTAYYAQKFQGRVTITADESTSTAYMELSSLRSEDTAVYYCARDSGSRYAGRYAFDYWGQGTLVTVSS
VL: EIVLTQSPATLSLSPGERATLSCRASQSVSSYLAWYQQKPGQAPRLLIYDASNRATGIPARFSGSGSGTDFTLTISSLEPEDFAVYYCQQRSNWPLTFGQGTKVEIKR
notes: phage display; human V, mouse IgG2a/kappa
For the molecule B1, the “MFI @ 20 nM” value in experiment [1] came to 5090 MFI. For the same molecule, in experiment [2], the “MFI @ 0.7 nM” value turned out to be 2990 MFI. Besides, the EC50 in experiment [3] was determined as 0.02 nM; in experiment [4], 0.26 nM. In addition, the “MFI (6.4 nM)” value in experiment [5] amounted to 287000 MFI.

B2: I23RB3 (antibody, mouse IgG2a, kappa, V domains shown)
VH: QVQLVQSGAEVKKPGSSVKVSCKASGGTFKSYSIHWVRQAPGQGLEWMGGIIPYFGYANYAQKFQGRVTITADESTSTAYMELSSLRSEDTAVYYCARERGYYGSIYYGGGFDYWGQGTLVTVSS
VL: EIVLTQSPATLSLSPGERATLSCRASQSVSSYLAWYQQKPGQAPRLLIYDASNRATGIPARFSGSGSGTDFTLTISSLEPEDFAVYYCQQRSNWPLTFGQGTKVEIKR
notes: as for B1
Regarding B2, the “MFI @ 20 nM” value in experiment [1] was determined as 4320 MFI. Further, the “MFI @ 0.7 nM” value in experiment [2] turned out to be 1460 MFI. In addition, the EC50 in experiment [3] came to 0.37 nM; in experiment [4] it was 0.66 nM. Besides, in experiment [5], the “MFI (6.4 nM)” value was determined as 149000 MFI.

B3: I23RB4 (antibody, mouse IgG2a, kappa, V domains shown)
VH: QVQLVQSGAEVKKPGSSVKVSCKASGGTFKTYAIHWVRQAPGQGLEWMGWIIPIFGTANYAQKFQGRVTITADESTSTAYMELSSLRSEDTAVYYCARDGGYYGSRYYPRSYYFDYWGQGTLVTVSS
VL: EIVLTQSPATLSLSPGERATLSCRASQSVSSYLAWYQQKPGQAPRLLIYDASNRATGIPARFSGSGSGTDFTLTISSLEPEDFAVYYCQQRSNWPLTFGQGTKVEIKR
notes: as for B1
Consider B3, for which the “MFI @ 20 nM” value in experiment [1] is 4390 MFI. In addition, in experiment [2], the “MFI @ 0.7 nM” value is 2990 MFI. In addition, the results for the EC50 in experiment [3] and in experiment [4] were 0.03 nM and 0.04 nM, respectively. In addition, the “MFI (6.4 nM)” value in experiment [5] was 225000 MFI.

B4: I23RB2 (antibody, mouse IgG2a, kappa, V domains shown)
VH: QVQLVQSGAEVKKPGSSVKVSCKASGGTFSSYAISWVRQAPGQGLEWMGGIIPIFGTANYAQKFQGRVTITADESTSTAYMELSSLRSEDTAVYYCARDRYRYLGANGFDYWGQGTLVTVSS
VL: EIVLTQSPATLSLSPGERATLSCRASQSVSSYLAWYQQKPGQAPRLLIYDASNRATGIPARFSGSGSGTDFTLTISSLEPEDFAVYYCQQRSNWPLTFGQGTKVEIKR
notes: as for B1
B4: the “MFI @ 20 nM” value in experiment [1] worked out at 4110 MFI. Further, the “MFI @ 0.7 nM” value in experiment [2] is 670 MFI. The figures for the concentration giving a half-maximal response (EC50) in experiment [3] and in experiment [4] were 1.11 nM and 1.09 nM, respectively.

B5: I23RB104 (antibody, mouse IgG2a, kappa, V domains shown)
VH: EVKLVESGGGLVKPGGSLKLSCAASGFTFSSYAMSWVRQTPEKRLDWVASISTGGSTYYPDSVKGGFTISRDIARNTLSLQMTSLRSEDTAMYYCARGPHYYGGSYPFAYWGQGTTLTVSS
VL: DIQMTQSPASLSVSVGETVTITCRASENIYSNLAWYQQKQGKSPQLLVYAATNLADGVPSRFSGSGSGTQYSLKINSLQSEDFGSYYCQHFWGTPPTFGSGTKLEIKR
notes: immunization; mouse IgG2a/kappa
Take B5: the binding result in experiment [6] is reported as “no binding”.

B6: I23RB7 (antibody, mouse IgG2a, kappa, V domains shown)
VH: QIQLVQSGPELKKPGETVKISCKASGYTFTTYGMSWVKQAPGKGLKWMGWINTYSGVPTYADDFKGRFAFSLETSASTAYLQINNLKNEDTATYYCARRDRYGYVAGAFAYWGQGTLVTVSS
VL: QIVLTQSPAIMSASPGEKVTMTCSASSSVSYMYWYQQKPGSSPRLLIYDTSNLASGVPVRFSGSGSGTSYSLTISRMEAEDAATYYCQQWSSYPWTFGGGTKLEIKR
notes: phage display; mouse V, mouse IgG2a/kappa
Consider B6, for which the “MFI @ 20 nM” value in experiment [1] came out at 4320 MFI. In experiment [2], the “MFI @ 0.7 nM” value was determined as 2230 MFI. The affinity in experiment [7], expressed as Kd, was 1 nM. Besides, the half-maximal effective concentration (EC50) worked out at 0.1 nM in experiment [3] and 0.07 nM in experiment [4]. For the same molecule, the “MFI (6.4 nM)” value in experiment [5] was found to be 172000 MFI.

B7: I23RB189 (antibody, mouse IgG2a, kappa, V domains shown)
VH: DVQLQESGPDLVKPSQSLSLTCTVTGYSITSGYNWHWIRQFPGNKLEWMGYIHSSGTTNYSPSLRSRLSITRDTSKNQFFLQLNSVTTEDTATYYCTRQLGLKAMEYWGQGTTLTVSS
VL: DIVLTQSPKSMSMSVGERVTLSCKASENVGTYVSWYQQKPEQSPKLLMYGASNRYTGVPDRFTGSGSATDFTLTISSVQAEDLADYHCGQSYSYPPTFGGGTKLEIKR
notes: as for B5
Regarding B7, the binding result in experiment [6] is on record as “no binding”.

B8: I23RB149 (antibody, mouse IgG2a, kappa, V domains shown)
VH: DVQLQESGPDLVKPSQSLSLTCTVTGYSITSGYNWHWIRQFPGNKLEWMGYIHFSDRTNYNPSLKSRISITRDTSKNQFFLQLNSVTSEDTATYYCSRQLGLKALDYWGQGTTLTVSS
VL: DVQMIQSPLSLPVSLGDQASISCRSSQSLVHSNGNTYLHWYLQKPGQSPKLLIYKVSNRFSGVPDRFSGSGSGTDFTLKISRVEAEDLGVYFCSQSTHVPLTFGAGTRLEIKR
notes: as for B5
As to B8, the binding result in experiment [6] is listed as “no binding”.
